Legend:
Experiment in all cases: FP
MCL-1ΔNΔC = molecular target: T1, MCL-1ΔNΔC
T1 chain: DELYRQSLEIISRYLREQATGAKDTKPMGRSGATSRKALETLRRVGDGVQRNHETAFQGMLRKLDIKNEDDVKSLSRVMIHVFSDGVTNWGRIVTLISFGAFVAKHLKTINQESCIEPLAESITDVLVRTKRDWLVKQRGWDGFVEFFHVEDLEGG

BCL-XLΔC = molecular target: BCL-XLΔC
BCL-WΔC = molecular target: T2, BCL-WΔC
T2 chain: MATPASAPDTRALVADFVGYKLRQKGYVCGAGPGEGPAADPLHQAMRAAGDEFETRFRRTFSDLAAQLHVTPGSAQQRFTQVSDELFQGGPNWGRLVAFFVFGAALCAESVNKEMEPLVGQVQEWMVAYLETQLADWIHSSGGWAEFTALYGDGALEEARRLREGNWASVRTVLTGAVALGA

BCL-2ΔC = molecular target: BCL-2ΔC

B1: FITC-BIM_(A,cath,K)PA2 (BIMA, valine-citrulline cathepsin-cleavable linker, five lysines, DSPE-PEG(2000) lipid tail) (peptide)
chain: IWIAQELRRIGDEFNAYYARRVXKKKKK
modifications: fluorescein isothiocyanate (FITC) on the N-terminus; citrulline after the linker's valine (written X in the letters); DSPE-PEG(2000)-succinyl lipid tail on the side chain of the C-terminal lysine
MCL-1ΔNΔC
  Kd: 0.453 µM
BCL-XLΔC
  Kd: 0.165 µM
BCL-WΔC
  Kd: 0.247 µM
BCL-2ΔC
  Kd: 0.187 µM

Source: paper PMC6719084 (2019)
